Test results published in US20210255174.

B1: Thermolysin (protein)
chain: ITGTSTVGVGRGVLGDQKNINTTYSTYYYLQDNTRGNGIFTYDAKYRTTLPGSLWADADNQFFASYDAPAVDAHYYAGVTYDYYKNVHNRLSYDGNNAAIRSSVHYSQGYNNAFWNGSQMVYGDGDGQTFIPLSGGIDVVAHELTHAVTDYTAGLIYQNESGAINEAISDIFGTLVEFYANKNPDWEIGEDVYTPGISGDSLRSMSDPAKYGDPDHYSKRYTGTQDNGGVHINSGIINKAAYLISQGGTHYGVSVVGIGRDKLGKIFYRALTQYLTPTSNFSQLRAAAVQSATDLYGSTSQEVASVKQAFDAVGVK
B2: Proteinase K (protein)
chain: AAQTNAPWGLARISSTSPGTSTYYYDESAGQGSCVYVIDTGIEASHPEFEGRAQMVKTYYYSSRDGNGHGTHCAGTVGSRTYGVAKKTQLFGVKVLDDNGSGQYSTIIAGMDFVASDKNNRNCPKGVVASLSLGGGYSSSVNSAAARLQSSGVMVAVAAGNNNADARNYSPASEPSVCTVGASDRYDRRSSFSNYGSVLDIFGPGTSILSTWIGGSTRSISGTSMATPHVAGLAAYLMTLGKTTAASACRYIADTANKGDLSNIPFGTVNLLAYNNYQA

Legend:
[1] = target: Control peptide #112: [5-Fam]…[DABCYL]-Hex
[2] = target: Control peptide #113: [4-Mu]…[DABCYL]-Hex

Protein | KM [1] [µM] | KM [2] [µM]
B1 | 3.58 | 6.45
B2 | 3.37 | 4.87
